Source: patent US10227388B2, “Peptides and combination of peptides for use in immunotherapy against non-small cell lung cancer and other cancers” (immatics biotechnologies GmbH, priority 2015, dated 2019)

Target: HLA-A*02:01 (Homo sapiens, UniProt P04439, D140Y/D185E/D98H/E176V/E277Q/G131W/G231S/I119V/I121R/I166T/I218V/L300P/L318F/N151K/N90K/P208A/P217A/Q86G/Q94H/R138H/R169H/T345S)
Test: MHC binding assay (UV-ligand exchange, ELISA, peptide exchange yield)
Details: binding of HLA-class I restricted peptides to HLA-A*02:01
How it was run: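 Peptide–HLA-A*02:01 complexes made by UV-ligand exchange of a UV-cleavable peptide for the test peptide. Exchange yield measured by ELISA: 100-fold diluted monomers captured on streptavidin, 1 h at 37° C., detected with HRP anti-β2m and TMB, absorbance at 450 nm.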

| Substance | Peptide exchange (MHC class I binding score, peptide exchange yield) |
| --- | --- |
| 178 (ALTEIAFVV; listed as Homo sapiens) [compound 178] | ″++++″ (≥75% = ++++) |
| 205 (SLYPGTETMGL; listed as Homo sapiens) [compound 205] | ″+++″ (≥50% = +++) |
| 75 (GLLEVMVNL; listed as Homo sapiens) [compound 75] | ″+++″ (≥50% = +++) |
| 50 (SLSELEALM; listed as Homo sapiens) [compound 50] | ″+++″ (≥50% = +++) |
| 358 (ALDEYTSEL; listed as Homo sapiens) [compound 358] | ″++++″ (≥75% = ++++) |
| 544 (LLWDVPAPSL; listed as Homo sapiens) [compound 544] | ″+++″ (≥50% = +++) |
| 329 (FLVTLNNVEV; listed as Homo sapiens) [compound 329] | ″++++″ (≥75% = ++++) |
| 28 (QLLDETSAITL; listed as Homo sapiens) [compound 28] | ″+++″ (≥50% = +++) |
| 19 (FMVDNEAIYDI; listed as Homo sapiens) [compound 19] | ″++++″ (≥75% = ++++) |
| 513 (SLWPSPEQL; listed as Homo sapiens) [compound 513] | ″++″ (≥20% = ++) |
| 433 (AMLNEPWAV; listed as Homo sapiens) [compound 433] | ″+++″ (≥50% = +++) |
| 506 (KLLGKVETA; listed as Homo sapiens) [compound 506] | ″+++″ (≥50% = +++) |
| 77 (ILVEADGAWVV; listed as Homo sapiens) [compound 77] | ″++++″ (≥75% = ++++) |
| 316 (ILLERLWYV; listed as Homo sapiens) [compound 316] | ″+++″ (≥50% = +++) |
| 519 (GLLHLTLLL; listed as Homo sapiens) [compound 519] | ″+++″ (≥50% = +++) |
| 546 (VMIAGKVAVV; listed as Homo sapiens) [compound 546] | ″+++″ (≥50% = +++) |
| 586 (KLKPGDLVGV; listed as Homo sapiens) [compound 586] | ″+++″ (≥50% = +++) |
| 606 (ALWETEVYI; listed as Homo sapiens) [compound 606] | ″+++″ (≥50% = +++) |
| 168 (KILDADIQL; listed as Homo sapiens) [compound 168] | ″++++″ (≥75% = ++++) |
| 385 (SLLEQGLVEA; listed as Homo sapiens) [compound 385] | ″++″ (≥20% = ++) |
| 84 (VTFGEKLLGV; listed as Homo sapiens) [compound 84] | ″++″ (≥20% = ++) |

| Substance | Peptide exchange (MHC class I binding score, peptide exchange yield) |
| --- | --- |
| 236 (GLLEAKVSL; listed as Homo sapiens) [compound 236] | ″+++″ (≥50% = +++) |
| 432 (TLIEESAKV; listed as Homo sapiens) [compound 432] | ″++″ (≥20% = ++) |
| 298 (VMITKLVEV; listed as Homo sapiens) [compound 298] | ″+++″ (≥50% = +++) |
| 235 (YLNDLHEVLL; listed as Homo sapiens) [compound 235] | ″++++″ (≥75% = ++++) |
| 456 (LLIGHLERV; listed as Homo sapiens) [compound 456] | ″+++″ (≥50% = +++) |
| 262 (LLWGDLIWL; listed as Homo sapiens) [compound 262] | ″+++″ (≥50% = +++) |
| 206 (VLQEGKLQKLAQL; listed as Homo sapiens) [compound 206] | ″+++″ (≥50% = +++) |
| 218 (SALEELVNV; listed as Homo sapiens) [compound 218] | ″++″ (≥20% = ++) |
| 42 (VLLQKIVSA; listed as Homo sapiens) [compound 42] | ″+++″ (≥50% = +++) |
| 362 (TLYGLSVLL; listed as Homo sapiens) [compound 362] | ″+++″ (≥50% = +++) |
| 376 (AMFESSQNVLL; listed as Homo sapiens) [compound 376] | ″++″ (≥20% = ++) |
| 299 (YLLETSGNL; listed as Homo sapiens) [compound 299] | ″+++″ (≥50% = +++) |
| 129 (GLLDGGVDILL; listed as Homo sapiens) [compound 129] | ″+++″ (≥50% = +++) |
| 481 (GLIEDYEALL; listed as Homo sapiens) [compound 481] | ″+++″ (≥50% = +++) |
| 346 (LLDSKVPSV; listed as Homo sapiens) [compound 346] | ″+++″ (≥50% = +++) |
| 448 (NLLETKLQL; listed as Homo sapiens) [compound 448] | ″+++″ (≥50% = +++) |
| 345 (VIWKALIHL; listed as Homo sapiens) [compound 345] | ″+++″ (≥50% = +++) |
| 120 (ALLGIPLTLV; listed as Homo sapiens) [compound 120] | ″+++″ (≥50% = +++) |
| 545 (LLADLLHNV; listed as Homo sapiens) [compound 545] | ″+++″ (≥50% = +++) |
| 220 (LLQKFVPEI; listed as Homo sapiens) [compound 220] | ″++″ (≥20% = ++) |
| 475 (LLLNEEALAQI; listed as Homo sapiens) [compound 475] | ″+++″ (≥50% = +++) |

| Substance | Peptide exchange (MHC class I binding score, peptide exchange yield) |
| --- | --- |
| 388 (SLTIDGIRYV; listed as Homo sapiens) [compound 388] | ″+++″ (≥50% = +++) |
| 436 (HLAEVSAEV; listed as Homo sapiens) [compound 436] | ″+++″ (≥50% = +++) |
| 302 (ALLQEGEVYSA; listed as Homo sapiens) [compound 302] | ″+++″ (≥50% = +++) |
| 151 (KILQQLVTL; listed as Homo sapiens) [compound 151] | ″+++″ (≥50% = +++) |
| 556 (FLTDLEDLTL; listed as Homo sapiens) [compound 556] | ″+++″ (≥50% = +++) |
| 464 (ALNDCIYSV; listed as Homo sapiens) [compound 464] | ″+++″ (≥50% = +++) |
| 396 (ALLPDLPAL; listed as Homo sapiens) [compound 396] | ″+++″ (≥50% = +++) |
| 135 (ALSEVDFQL; listed as Homo sapiens) [compound 135] | ″+++″ (≥50% = +++) |
| 554 (LLMPSSEDLLL; listed as Homo sapiens) [compound 554] | ″+++″ (≥50% = +++) |
| 254 (TLLAFIMEL; listed as Homo sapiens) [compound 254] | ″+++″ (≥50% = +++) |
| 343 (SLLEVNEESTV; listed as Homo sapiens) [compound 343] | ″+++″ (≥50% = +++) |
| 249 (LLDGFLVNV; listed as Homo sapiens) [compound 249] | ″+++″ (≥50% = +++) |
| 224 (TLIDAQWVL; listed as Homo sapiens) [compound 224] | ″+++″ (≥50% = +++) |
| 76 (ILIDSIYKV; listed as Homo sapiens) [compound 76] | ″+++″ (≥50% = +++) |
| 520 (LAVHPSGVAL; listed as Homo sapiens) [compound 520] | ″+″ (≥10% = +) |
| 24 (SLSDGLEEV; listed as Homo sapiens) [compound 24] | ″++″ (≥20% = ++) |
| 492 (SLFDGFADGLGV; listed as Homo sapiens) [compound 492] | ″+++″ (≥50% = +++) |
| 209 (KLIESKHEV; listed as Homo sapiens) [compound 209] | ″++″ (≥20% = ++) |
| 446 (QLIPALAKV; listed as Homo sapiens) [compound 446] | ″+++″ (≥50% = +++) |
